Measured values reported in patent US20260008872A1 (NANO TAG BIOTECHNOLOGIES, published 2026).
Substitutions are numbered along the chain they refer to. Ends that are not written are not given here.

B1: wtNbALFA (original alpaca-derived NbALFA single-domain antibody) (VHH)
VHH: EVQLQESGGGLVQPGGSLRLSCTASGVTISALNAMAMGWYRQAPGERRVMVAAVSERGNAMYRESVQGRFTVTRDFTNKMVSLQMDNLKPEDTAVYYCHVLEDRVDSFHDYWGQGTQVTVSS
notes: VHH; Any purification tag on the construct used in the BLI and SpA assays is not described; also called wild type NbALFA
B2: Variant 7 of humanized NbALFA (VHH)
VHH: EVQLVESGGGLVQPGGSLRLSCAASGVTISALNAMAMGWFRQAPGKGRELVAAVSERGNAMYRESVQGRFTISRDNAKRMVYLQMNSLRAEDTAVYYCHVLEDRVDSFHDYWGQGTQVTVSS
notes: CDR-grafted variant, produced in E. coli and purified by IMAC; The tag is not described
B3: Variant 11 of humanized NbALFA (VHH)
VHH: B2 VHH with F40Y, G47R, L50M, Q67K
B4: Variant 12 of humanized NbALFA (VHH)
VHH: B2 VHH with F40Y, G47R, L50M, A60T, Q67K
B5: Variant 10 of humanized NbALFA (VHH)
VHH: B2 VHH with F40Y, G47R, L50M, A60T
B6: Variant 8 of humanized NbALFA (VHH)
VHH: B2 VHH with G47R, L50M
notes: Further engineered humanized variant; Any tag on the tested construct is not described
B7: Variant 15 of humanized NbALFA (VHH)
VHH: EVQLVESGGGLVQPGGSLRLSCAASGVTISALNAMAMGWYRQAPGKRREMVAAVSERGNTYYRDSVKGRFTISRDNSKNTLYLQMNSLRAEDTAVYYCHVLEDRVDSFHDYWGQGTQVTVSS
B8: Variant 13 of humanized NbALFA (VHH)
VHH: B7 VHH with S77A, N79R, T80M, L81V
B9: Variant 9 of humanized NbALFA (VHH)
VHH: B2 VHH with F40Y, G47R, L50M
notes: as for B6
B10: Variant 14 of humanized NbALFA (VHH)
VHH: B7 VHH with T60A, Y61M, D64E
B11: Variant 5 of humanized NbALFA (VHH)
VHH: EVQLQASGGGFVQPGGSLRLSCAASGVTISALNAMAMGWFRQAPGKEREFVSAISERGNAYYRDSVKGRFTISRDNSKNTVYLQMNSLRAEDTATYYCAALEDRVDSFHDYWGQGTQVTVSS
notes: as for B2
B12: Variant 3 of humanized NbALFA (VHH)
VHH: B2 VHH with V5L, R48L, L50F, A77S, R79N, M80T, V81L, H99A, V100A, Q117L
notes: as for B2
B13: Variant 4 of humanized NbALFA (VHH)
VHH: B7 VHH with V5L, Y40F, R47G, R48L, M50F, T60A, H99A, V100A, Q117L
notes: as for B2
B14: Variant 6 of humanized NbALFA (VHH)
VHH: B11 VHH with I54V, Y61M, D64E, K67Q
notes: as for B2

Target: T1, epitope tag peptide SRLEEELRRRLTE (SEQ ID NO: 2), biotinylated (also: biotinylated (site and linker not given here))
T1 construct: Rationally designed peptide; also called ALFA-tag
T1 peptide: SRLEEELRRRLTE
Assay: BLI (Octet), biotinylated peptide on SAX2.0 biosensors, 1:1 global fit
Experimental: (§1) To determine the affinity of humanized NbALFA variants to the epitope tag of SEQ ID NO: 2, an Octet RED96 or an Octet HTX from ForteBio was utilized. The measurement principle is based on biolayer interferometry (BLI). SAX2.0 biosensors were soaked for 10 min in kinetic buffer (KB), supplied by the manufacturer of the instrument. At first, a 60 or 120 sec baseline in KB was measured, followed by a loading step of 240 sec with 83 ng/ml of biotinylated peptide of SEQ ID NO: 2. After loading, free streptavidin entities on the biosensor were quenched during a 120 sec incubation step in a 100 μg/ml biocytin solution. Subsequently, a 60 to 600 sec baseline in KB was measured followed by association of the VHH. The VHH was applied with a maximal concentration of 10 nM and was 1:1 serial diluted in KB. As a reference, only KB was measured. Association was performed for 900 sec, followed by a dissociation time of 1500 sec in KB. The signal of the reference well was subtracted from the signal of all other biosensors and the signals of these processed data were aligned to the average of the second baseline. For inter-step correction, the data were aligned to the dissociation step and Savitzky-Golay filtering was applied to all curves. Association and dissociations were globally fitted using a 1:1 Langmuir binding model.

Compared with B1, B2 is 12-fold higher in Kd: 0.16 nM for the first, 1.86 nM for the second.

First: B1
Second: B2
The koff of the first is 4.3-fold lower: 6.37e-05 s⁻¹ for the first, 0.000276 s⁻¹ for the second.

Compared with B1, B2 is 2.7-fold lower in kon: 399000 M⁻¹ s⁻¹ for the first, 149000 M⁻¹ s⁻¹ for the second.

Target: T1, epitope tag peptide SRLEEELRRRLTE (SEQ …)
Assay: as above
Remark: another data set of the same source
Experimental: as §1

Compared with B1, B3 is 2.7-fold lower in Kd: 0.16 nM for the first, 0.0595 nM for the second. The second binds more tightly here.

B4 and B5 are within 1.5-fold of each other in Kd: 0.248 nM for the first, 0.306 nM for the second.

B6 and B8 are within 1.5-fold of each other in Kd: 0.263 nM for the first, 0.217 nM for the second.

B9 and B10 are within 1.5-fold of each other in Kd: 0.182 nM for the first, 0.218 nM for the second.

Going from B1 to B3, the koff falls from 6.37e-05 s⁻¹ to 3.7e-05 s⁻¹ (1.7-fold).

B4 and B5 are within 1.5-fold of each other in koff: 0.000151 s⁻¹ for the first, 0.000147 s⁻¹ for the second.

B6 and B7 are within 1.5-fold of each other in koff: 0.000263 s⁻¹ for the first, 0.000302 s⁻¹ for the second.

First: B8
Second: B9
The koff of the first is 4.5-fold higher: 0.000167 s⁻¹ for the first, 3.69e-05 s⁻¹ for the second.

Work on B10 yielded a koff of 0.00013 s⁻¹.

First: B1
Second: B3
The kon of the first is 1.6-fold lower: 399000 M⁻¹ s⁻¹ for the first, 622000 M⁻¹ s⁻¹ for the second.

B4 and B5 are within 1.5-fold of each other in kon: 609000 M⁻¹ s⁻¹ for the first, 480000 M⁻¹ s⁻¹ for the second.

Going from B6 to B7, the kon rises from 1e+06 M⁻¹ s⁻¹ to 1.59e+06 M⁻¹ s⁻¹ (1.6-fold).

First: B8
Second: B9
The kon of the first is 3.8-fold higher: 767000 M⁻¹ s⁻¹ for the first, 203000 M⁻¹ s⁻¹ for the second.

With B10 the kon was 596000 M⁻¹ s⁻¹.

Target: T1, epitope tag peptide SRLEEELRRRLTE (SEQ …)
Assay: biolayer interferometry (Octet); biotinylated peptide of SEQ ID NO: 2 loaded on SAX2.0 biosensors; VHH in solution, 1:1 serial dilution (Method 1)
Source text: FIG. 1: Affinity of humanized NbALFA variants generated by CDR grafting. A, affinity measurements of the original alpaca-derived NbALFA (wtNbALFA) for the peptide of SEQ ID NO: 2. B, affinity measurements of variant 3 for the peptide of SEQ ID NO: 2. C, affinity measurements of variant 4 for the peptide of SEQ ID NO: 2. D, affinity measurements of variant 5 for the peptide of SEQ ID NO: 2. E, affinity measurements of variant 6 for the peptide of SEQ ID NO: 2. F, affinity measurements of variant 7 for the peptide of SEQ ID NO: 2. Affinity was determined using biolayer interferometry as described in Method 1 of the Examples.
as §1

B11: no binding.
B12: no binding.
B13: no binding.
B14: no binding.
